The chains are these.
B1: Hairpin Ribozyme (parent)
chain: GUCCUCUUUCACGUGCGCGUGAAAGAGAGAAGUGAACCAGAGAAACACACGUUGUGGUAUAUUACCUGGUA

In the data set the parent is B1. In words: self-cleavage, relative activity (ratio to wild type); higher = more cleavage; co-transcriptional.
On to G29C A45G, for which the self-cleavage is 0.106.

Take A26G G34A: the self-cleavage was found to be 1.19. On to G17U A61C, for which the self-cleavage came out at 0.161. As to G13U U52G, the self-cleavage was determined as 0.623. Take A11G G17A: the self-cleavage was determined as 1.01. As to A26U U60C, the self-cleavage was 0.898. With U58A C65U, the self-cleavage worked out at 0.203. For C38G A45U, the self-cleavage stood at 0.156.

Turning to G25A G29U, the self-cleavage is 0.164. As for U14A A22U, the figure is 0.715.

In the case of G29C U67A, the self-cleavage worked out at 0.179.

With A30U A44U, the self-cleavage came to 0.16. Consider U7G A47G, for which the self-cleavage was 0.174. For the variant G15C G51U, the self-cleavage was found to be 0.91.

Turning to U7A G40C, the self-cleavage was found to be 0.166. As for G42C G56C, the self-cleavage was 0.159. On to C12G G27U, for which the self-cleavage is 0.261. With A24U A71C the figure was 1.27; with G19C A41C, 1.24; with G1A A11G, 0.0942. On to U53G A59U, for which the self-cleavage was found to be 0.119.

Turning to U2G A41C, the self-cleavage was found to be 0.566. Consider U20G U33A, for which the self-cleavage was 0.158. As for A31C U58C, the self-cleavage amounted to 0.247. Regarding U2A G42A, the self-cleavage stood at 0.107. On to A22U A64G, for which the self-cleavage was found to be 0.474. Take C16G G19U: the self-cleavage came out at 0.719. With A31G A61C, the self-cleavage was 0.16. Regarding C46G U67G, the self-cleavage was 0.198.

G15A A26C: the self-cleavage amounted to 0.93. Regarding U14G A28C, the self-cleavage was found to be 0.589. Regarding C12U A30U, the self-cleavage was 0.136. As for A47G A64C, the figure is 0.0744. With C10U U62A, the self-cleavage amounted to 0.234. As to A30C A45U, the self-cleavage was 0.0541. Regarding A11C U60A, the self-cleavage amounted to 0.716. As for A11U U62A, the figure is 0.148; as for A45U C66A, 0.204. On to G19A A41C, for which the self-cleavage was 1.13. For G15C U60A, the self-cleavage amounted to 0.709. On to C46U C66U, for which the self-cleavage is 0.149. As for C50A G57A, the figure is 0.138; as for U2C G34U, 0.316; as for A35G, 0.931. As for G29A U53A, the figure is 0.109; as for C18G A61G, 0.152; as for G13U, 0.763. Regarding U8G U20C, the self-cleavage came out at 0.425.

With A39U U53C, the self-cleavage turned out to be 0.508. Take C48U A49C: the self-cleavage came to 0.225.

In the case of G40U A64U, the self-cleavage came out at 0.1. As to G21U A39C, the self-cleavage is 0.448. C16A G25A: the self-cleavage turned out to be 0.561. On to C37U A64G, for which the self-cleavage stood at 0.456.

Consider U2A C6G, for which the self-cleavage was 0.247. In the case of C12G A47C, the self-cleavage worked out at 0.417.

For the variant A45C C65A, the self-cleavage came to 0.2.

For A24G A31G, the self-cleavage came to 0.662.

For the variant A36U G40C, the self-cleavage is 0.101. As to G17C U70A, the self-cleavage amounted to 0.862.

On to A49C C50G, for which the self-cleavage is 0.129.

For G32A A44G, the self-cleavage is 0.143. With A11C A22C the figure was 0.803; with C66A G69C, 0.239; with G29C A64G, 0.124. Turning to G19C C48A, the self-cleavage turned out to be 0.122.

As to U53C C65G, the self-cleavage came out at 0.236. For the variant C6U G42C, the self-cleavage worked out at 0.342. For the variant G25U G56U, the self-cleavage turned out to be 0.223.

G15A U55C: the self-cleavage amounted to 0.225. Consider C12G C16A, for which the self-cleavage was found to be 0.84. Take C12U A44U: the self-cleavage is 0.0952. With U8A C66U the figure was 0.238; with G32U A61G, 0.0951. C12A C65A: the self-cleavage came out at 0.787.

With G32C G57U, the self-cleavage came out at 0.072. With C6U C65A the figure was 0.776; with U5G U60A, 0.161. A28G U63G: the self-cleavage was 0.223.

As for A35U A36G, the self-cleavage amounted to 0.901.

A24C C38A: the self-cleavage came out at 0.228.

For C6U U67C, the self-cleavage stood at 0.222. G15U G69A: the self-cleavage amounted to 0.448.

As to U5A U8A, the self-cleavage worked out at 0.285. As for A36G A39G, the self-cleavage stood at 0.513. For the variant G15C G34C, the self-cleavage was 0.578. On to U9A G15C, for which the self-cleavage is 0.727. With C38U U70G the figure was 0.39; with A23U A61U, 0.0982; with A59G A71C, 0.444. With A45G U60G the figure was 0.187. For the variant C18U U53G, the self-cleavage came out at 0.644. For the variant C6A U55G, the self-cleavage was determined as 0.14. For the variant G51C U52G, the self-cleavage was found to be 0.469.

On to A45G A49C, for which the self-cleavage came out at 0.103. On to G42C U62G, for which the self-cleavage was 0.0896. With A23U A31G the figure was 0.805; with A11U A59U, 0.256. Regarding A22G G27A, the self-cleavage was found to be 0.522. G17U U63G: the self-cleavage is 0.0762. For A35U A71G, the self-cleavage is 0.962. Regarding C10U A36G, the self-cleavage was 0.648. On to A39C U70A, for which the self-cleavage amounted to 0.188.

Regarding A11C C50G, the self-cleavage worked out at 0.321. As for G19A U53G, the self-cleavage was 0.691.

For the variant G57U A64U, the self-cleavage was determined as 0.173.

A28G: the self-cleavage stood at 1.12.

As to C46A G51U, the self-cleavage worked out at 0.146.

On to A22C U67C, for which the self-cleavage was determined as 0.196.

In the case of A44G G56C, the self-cleavage turned out to be 0.0768. As for A44G G56A, the self-cleavage was 0.191.

A39C G56A: the self-cleavage came out at 0.193. Turning to G27C C48A, the self-cleavage was 0.0978. Regarding U33A G34A, the self-cleavage was 0.0987.

Turning to C10G G15U, the self-cleavage turned out to be 0.851. As to C4G G32A, the self-cleavage came out at 0.154. For G27A A59C, the self-cleavage was 0.103. For A24U A41C, the self-cleavage was determined as 1.1. Take A11U U58A: the self-cleavage was 0.523.

In the case of G17C C65A, the self-cleavage is 0.748. As to G21A A49C, the self-cleavage worked out at 0.233. For the variant U8G G19A, the self-cleavage amounted to 0.533. On to G25C U60G, for which the self-cleavage was found to be 0.297. Take G54U G68U: the self-cleavage stood at 0.302. On to U58C C65U, for which the self-cleavage was 0.55.

With U7A G13A, the self-cleavage was 0.962. For the variant A28C G51A, the self-cleavage was 0.517. For U20G G29A, the self-cleavage was 0.0828. A49G G68U: the self-cleavage is 0.215.

Consider A36U A41U, for which the self-cleavage was found to be 0.868. As for A44G U55G, the self-cleavage was 0.185. For U52G A71U, the self-cleavage amounted to 0.572. With A47G G51C the figure was 0.221. On to A22C U55G, for which the self-cleavage came out at 0.173. With A30C U55A the figure was 0.146. With G29U U62A the figure was 0.103; with C16A C50G, 0.24; with A30C A44C, 0.0571. Take U62G C66G: the self-cleavage worked out at 0.0965. On to A22C G27A, for which the self-cleavage was determined as 0.272.

In the case of G34A A47U, the self-cleavage is 0.144. With U9A A28U the figure was 0.441; with A39G A43C, 0.137; with A41G C66A, 0.355. Regarding G34C G54U, the self-cleavage amounted to 1.19. As for U2G U7G, the self-cleavage worked out at 0.35. With C4U A30G the figure was 0.128. Consider C38U G69C, for which the self-cleavage was determined as 0.158. With G13U U67G, the self-cleavage is 0.241.

With U5A A49U, the self-cleavage was found to be 0.0811. In the case of G17C U60G, the self-cleavage was found to be 0.425. Take C16A A43U: the self-cleavage turned out to be 0.0656.

As for G27A A61C, the self-cleavage stood at 0.107. As to C46U A61G, the self-cleavage was 0.129. G17C C48G: the self-cleavage amounted to 0.165. Take A31U A45U: the self-cleavage came to 0.131.

Consider G27C A49C, for which the self-cleavage is 0.203.

Turning to C16A G27U, the self-cleavage came out at 0.202. Take U53G G54A: the self-cleavage worked out at 0.569.

Regarding U58G U60G, the self-cleavage turned out to be 0.731. Turning to G15U C16A, the self-cleavage was 1.11. With U8C U62G the figure was 0.144.

With G19C A24G, the self-cleavage was found to be 0.889. As for G1C U33G, the self-cleavage turned out to be 0.228. As for G13U G57C, the figure is 0.173; as for U20C A35G, 0.71. As for U14G U55G, the self-cleavage came out at 0.273.
